We go through two molecules from publication PMC11497264, “SARS‐CoV‐2 Spike Protein‐Derived Cyclic Peptides as Modulators of Spike Interaction with GRP78” (Chembiochem, 2024).

Bridge positions count the residues as written; N and C are the ends.

The chains are these.
B1: Pep42, 13-mer cyclopeptide (peptide)
peptide: H-CTVALPGGYVRVC-NH2
modifications: disulfide 1-13
SMILES: CC(C)C[C@@H]1NC(=O)[C@H](C)NC(=O)[C@H](C(C)C)NC(=O)[C@H]([C@@H](C)O)NC(=O)[C@@H](N)CSSC[C@@H](C(N)=O)NC(=O)[C@H](C(C)C)NC(=O)[C@H](CCCNC(=N)N)NC(=O)[C@H](C(C)C)NC(=O)[C@H](Cc2ccc(O)cc2)NC(=O)CNC(=O)CNC(=O)[C@@H]2CCCN2C1=O
notes: source: synthetic peptide (Fmoc SPPS, disulphide cyclisation with DMSO, HPLC purified)
B2: human glucose-regulated protein GRP78 (natural protein)
chain: not shown
notes: also called heat shock protein A5; HSPA5; source: Escherichia coli, recombinant; bought: Abcam

In assay [1] the target is B2. Briefly: SPR. Particulars: both partners purified.
Assay [2] addresses T1, S1 subunit (aa 14-685) of the spike protein of SARS-CoV-2 (SARS-CoV-2, UniProt P0DTC2 14-685).
T1 construct: also called soluble S1; wild-type S1 protein
Briefly: SPR. Particulars: both partners purified.

The term IC50 denotes the concentration at which inhibition is half-maximal. A low value points to higher potency. The Kd is the free concentration of one partner at which half of the binding sites on the other are occupied at equilibrium, for simple one-to-one binding. High values mean a looser complex, low ones a tighter complex. For the molecule B1, in assay [1], 5900 nM corresponded to half-maximal inhibition (IC50) and the Kd amounted to 3400 nM.

As to B2, in assay [2], the “KD in the presence of 12.5 uM LCP O” value turned out to be 751 nM and the “KD in the presence of 12.5 uM LCP W” value came to 137 nM.
